In paper PMC5167779:

Key:
[1] = biological target: XfYgiT, antitoxin of the toxin-antitoxin system of Xylella fastidiosa subsp. pauca strain 9a5c (Xylella fastidiosa subsp. pauca strain 9a5c); assay: ITC
[2] = biological target: XfYgiT, antitoxin of the toxin-antitoxin system of Xylella fastidiosa subsp. pauca strain 9a5c (Xylella fastidiosa subsp. pauca strain 9a5c); assay: SEC
[3] = biological target: XfYgiT, antitoxin of the toxin-antitoxin system of Xylella fastidiosa subsp. pauca strain 9a5c (Xylella fastidiosa subsp. pauca strain 9a5c); assay: AUC
[4] = biological target: XfYgiT, antitoxin of the toxin-antitoxin system of Xylella fastidiosa subsp. pauca strain 9a5c (Xylella fastidiosa subsp. pauca strain 9a5c); assay: SEC; […], sodium phosphate buffer ([…]

| Substance | dH [1] | stoichiometry N (mol/mol (printed as 1:1)) [1] | stoichiometry N (mol/mol (printed as 1:1)) [2] | stoichiometry N (mol/mol (printed as 2:2)) [3] | stoichiometry N [4] | stoichiometry N [3] |
| --- | --- | --- | --- | --- | --- | --- |
| XfMqsR, toxin of the toxin-antitoxin system of Xylella fastidiosa subsp. pauca strain 9a5c (natural protein) | -8.61 kcal/mol | 1 | 1 | 1 | – | – |
| XfYgiT, antitoxin of the toxin-antitoxin system of Xylella fastidiosa subsp. pauca strain 9a5c (natural protein) | – | – | – | – | 2 | 2 |
